The record followed here is patent US20140162951A1.

The target of this experiment is recombinant enovin (mature human enovin with NH2-terminal 6xHis tag, expressed from hEVNmat/pRSETB in E. coli) (human). The experiment can be described thus: SPR (BIAcore 3000), enovin immobilized, soluble GFRα3-Fc at three concentrations. Background: Surface plasmon resonance follows binding to a sensor surface in real time, without labels.

B1: soluble GFRα-3 IgG1-Fc fusion protein (Fc fusion, UniProt O60609 28-371, looked up, not shown: a dimerising Fc or GST)
chain: LAAGDPLPTESRLMNSCLQARRKCQADPTCSAAYHHLDSCTSSISTPLPSEEPSVPADCLEAAQQLRNSSLIGCMCHRRMKNQVACLDIYWTVHRARSLGNYELDVSPYEDTVTSKPWKMNLSKLNMLKPDSDLCLKFAMLCTLNDKCDRLRKAYGEACSGPHCQRHVCLRQLLTFFEKAAEPHAQGLLLCPCAPNDRGCGERRRNTIAPNCALPPVAPNCLELRRLCFSDPLCRSRLVDFQTHCHPMDILGTCATEQSRCLRAYLGLIGTAMTPNFVSNVNTSVALSCTCRGSGNLQEECEMLEGFFSHNPCLTEAIAAKMRFHSQLFSQDWPHPTFAVMAHQ
The term Kd denotes the free concentration of one partner at which half of the binding sites on the other are occupied at equilibrium, for simple one-to-one binding. For orientation: koff means a measure of how fast the partners let go of each other. A word on the kon: it is a measure of how fast the partners come together. In the case of B1, the Kd was determined as 3.1 nM, the koff amounted to 0.000508 s⁻¹ and the kon is 165000 M⁻¹ s⁻¹.
